# Measured values: patent US20060110388A1 (APPLIED MOLECULAR EVOLUTION, published 2006)
# Values joined by “and” are separate entries in the source; they are usually repeats but may differ in a detail not shown here. Identical values can stand only once.
# Columns and labels:
# β Amyloid peptide 1-40 [1] = target: T1, β Amyloid peptide 1-40 (human, UniProt P05067 672-711); experiment: KinExA, mAb
# T1 construct: domain: β Amyloid peptide 1-40; Biotinylated peptide 1-40 (Biosource) on avidin Sepharose only captured free antibody in KinExA; also called Aβ 1-40; human Aβ (1-40)
# Method: (§1) Typical 1× concentrations were 10 pM of antibody active sites (0.75 ng/mL) and an upper antigen concentration of 100 pM (0.43 ng/mL). The samples were then allowed to equilibrate for 24-72 hours at room temperature. A KinExA™ instrument (Sapidyne) and standard KD run file were then used to determine the KD of the system. Briefly, the KinExA™ flow cell was charged with the β Amyloid peptide coated beads and washed with PBSA. For the first sample, free antibody in solution was captured by the beads washed with PBSA and detected using 1:250 Goat anti-human Cy5 (Jackson Immunochemicals) in PBSA. The flow cell was then flushed, re-charged with beads and the next sample analyzed. The process was repeated until all 12 samples were analyzed.
# β Amyloid peptide 1-40 [2] = target: T1, β Amyloid peptide 1-40; experiment: BIAcore; against m266
# Method: (§2) BIAcore™ is an automated biosensor system that measures molecular interactions (Karlsson, et al. (1991) J. Immunol. Methods 145: 229-240). BIAcore™ analyses described herein were carried out at 25° C. In these experiments, antibody was immobilized at low density on a BIAcore™ CM5 or B1 chip. For the m266 antibody goat anti-mouse Fc (Jackson Immunoresearch) immobilized on CM5 in flow cell 2 was used for measuring binding constants. Goat anti-mouse was used as control antibody in flow cell 1. For the humanized antibodies, protein A or protein A/G was immobilized via amine coupling to flow cells 1 and 2 of a B1 or CM5 sensor chip.
# (§3) Antibody was then captured only to flow cell 2 at desired levels (usually a 10-60 second injection of antibody) and allowed to stabilize for 5 minutes. For these experiments, a fresh aliquot of Aβ 1-40 was thawed and then diluted 1:10 in HBS-EP running buffer. The 1:10 dilution was used to make up a 200 nM Aβ solution which was serially diluted (1:2 dilutions) to a lowest concentration of 6.25 nM. Each concentration was injected over the surface for 5 minutes at a flow rate of 50 μl/min (250 μl total). The Aβ and antibody were eluted from both flow cells with a 40s injection of glycine pH 1.5. The signal is allowed to stabilize for 2 minutes before the next cycle. The data from flow cell 1 is subtracted from flow cell 2 to account for any bulk shifts due to buffer differences or non-specific binding to the sensor chip or Protein A. The various concentrations were injected randomly and each concentration was run in duplicate. Two control runs of buffer only were used to control for any dissociation of antibody from the capture surface. The data was analyzed using the Biaevalution™ software. A 1:1 model with mass transfer and a local Rmax was used as the best fit for the data.
# Concentrations of human Aβ (1-40) from 200 nM to 1.6 nM in 2-fold serial dilution were used to obtain on-rate constant. The upper half of Table 6 represents determinations made with a first set of antibody preparations, while the lower half represents determinations made with a second set of antibody preparations
# β Amyloid peptide 1-40 [3] = target: T1, β Amyloid peptide 1-40; experiment: KinExA, mAb; against m266
# Method: as §1
# β Amyloid peptide 1-40 [4] = target: T1, β Amyloid peptide 1-40; experiment: KinExA, mAb, equilibration 16 h
# Method: as §1, with “The samples were then allowed to equilibrate for 24-72 hours at room temperature.” left out
# (§4) For KinExA™ kₒₙ and koff measurements, antigen and antibody were prepared as described above. Antigen and antibody samples at 2× active concentration were prepared in PBSA with 0.2% BSA. Samples were mixed 1:1 and the timing for the experiment started. Typical 1× concentrations were 1 nM antibody active site concentration ([…]) and 2 nM antigen (8.6 ng/mL). A KinExA™ instrument (Sapidyne) and a kineticsdirect run file were used to follow the reaction. Time for each measurement was determined using the manufacturer's instructions. Free antibody remaining in the reaction was captured using β amyloid coated beads packed into the flow cell washed with PBSA and detected at each time point using 1:250 Goat anti-human Cy5 (Jackson) in PBSA. The flow cell was then flushed and recharged with beads for the next measurement, the process continued until a complete decay curve obtained. The data was analyzed using the KinExA™ Inject software.
# β Amyloid peptide 1-40 [5] = target: T1, β Amyloid peptide 1-40; experiment: BIAcore, mAb captured, Aβ 1-40 injected, first set of preparations
# Method: as §2, §3
# Concentrations of human Aβ (1-40) from 200 nM to 1.6 nM in 2-fold serial dilution were used to obtain on-rate constant. […]
# β Amyloid peptide 1-40 [6] = target: T1, β Amyloid peptide 1-40; experiment: BIAcore, mAb captured, Aβ 1-40 injected, second set of preparations
# Method: as §2
# Antibody was then captured only to flow cell 2 at desired levels (usually a 10-60 second injection of antibody) and allowed to stabilize for 5 minutes. For these experiments, a fresh aliquot of Aβ 1-40 was thawed and then diluted 1:10 in HBS-EP running buffer. The 1:10 dilution was used to make up a 200 nM Aβ solution which was serially diluted (1:2 dilutions) to a lowest concentration of 6.25 nM. Each concentration was injected over the surface for 5 minutes at a flow rate of 50 μl/min (250 μl total). The Aβ and antibody were eluted from both flow cells with a 40s injection of glycine pH 1.5. The signal is allowed to stabilize for 2 minutes before the next cycle. […] The data was analyzed using the Biaevalution™ software. […]
# β Amyloid peptide 1-40 [7] = target: T1, β Amyloid peptide 1-40; experiment: KinExA, mAb; against m266; remark: listed apart in the source
# Method: as §4
# (§5) Association rate constants (kₒₙ) of m266 and antibodies of the present invention with Aβ were determined by KinExA™, using methods as described above in Example 1. The results of two separate kₒₙ determinations by KinExA™, in which separate preparations of antibodies were used, are provided in Tables 7 and 8.
# β Amyloid peptide 1-40 [8] = target: T1, β Amyloid peptide 1-40; experiment: KinExA, mAb, single experiment
# Method: as §1
# β Amyloid peptide 1-40 [9] = target: T1, β Amyloid peptide 1-40; experiment: KinExA, mAb, single experiment; remark: listed apart in the source
# Method: as §4, §5
# β Amyloid peptide 1-40 [10] = target: T1, β Amyloid peptide 1-40; experiment: KinExA, mAb, single experiment; remark: listed apart in the source
# Method: as §4, §5
# β Amyloid peptide 1-40 [11] = target: T1, β Amyloid peptide 1-40; experiment: KinExA, mAb, equilibration 24 h
# Method: as §1, §4
# β Amyloid peptide 1-40 [12] = target: T1, β Amyloid peptide 1-40; experiment: KinExA, mAb, average of the experiments
# Method: as §1
# β Amyloid peptide 1-40 [13] = target: T1, β Amyloid peptide 1-40; experiment: KinExA, mAb, average of the experiments; remark: listed apart in the source
# Method: as §4, §5
# β Amyloid peptide 1-40 [14] = target: T1, β Amyloid peptide 1-40; experiment: KinExA, mAb, average of the experiments; remark: listed apart in the source
# Method: as §4, §5
# β Amyloid peptide 1-40 [15] = target: T1, β Amyloid peptide 1-40; experiment: KinExA, mAb, single experiment, separate antigen preparation
# Method: as §4
# (§6) Association rate constants (kₒₙ) of m266 and antibodies of the present invention with Aβ were determined by KinExA™, using methods as described above in Example 1. […]
# (§7) ^aNumbers in bold are the averages calculated from individual experiments. ^bA separate preparation of antibodies was used for these experiments. ^cA separate preparation of antigen was used for these experiments.
# β Amyloid peptide 1-40 [16] = target: T1, β Amyloid peptide 1-40; experiment: KinExA, mAb, single experiment, separate antibody preparation
# Method: as §4, §6, §7
# β Amyloid peptide 1-40 [17] = target: T1, β Amyloid peptide 1-40; experiment: KinExA, mAb, single experiment, separate antibody and antigen preparations
# Method: as §4, §6, §7
# β Amyloid peptide 1-40 [18] = target: T1, β Amyloid peptide 1-40; experiment: KinExA, Fab, equilibration 16 h
# Method: as §1, with “The samples were then allowed to equilibrate for 24-72 hours at room temperature.” left out
# as §4
# T1 sequence (P05067 672-711 limits assumed): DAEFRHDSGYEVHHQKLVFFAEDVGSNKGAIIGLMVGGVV
binder,measurement,setting,value
"1D4 monoclonal antibody (IgG1) (antibody, V domains shown) VH: EVQLVESGGGLVKPGGSLRLSCAASGFTFSRYSMSWVRQAPGKGLEWVGQINSQGNSTYYPDTVKGRFTISRDDSKNTLYLQMNSLKTEDTAVYYCTTGDRWGQGTLVTVSS VL: DIVMTQTPLSLSVTPGQPASISCRSSQSLIYSDGNAYLHWYLQKPGQSPQLLIYKVSNRFSGVPDRFSGSGSGTDFTLKISRVEAEDVGVYYCSQSTHSPWTFGGGTKVEIK",Kd,β Amyloid peptide 1-40 [1],15.1 nM
same,Fold Increase (kon),β Amyloid peptide 1-40 [2],4 fold
same,Fold increase in affinity,β Amyloid peptide 1-40 [3],0.005 fold
same,Kd,β Amyloid peptide 1-40 [4],6.31 nM
same,koff,β Amyloid peptide 1-40 [4],0.00074 s⁻¹
same,kon,β Amyloid peptide 1-40 [4],120000 M⁻¹ s⁻¹
same,kon,β Amyloid peptide 1-40 [5],470000 M⁻¹ s⁻¹
"6C3 monoclonal antibody (IgG1) (antibody, V domains shown) VH: EVQLVESGGGLVKPGGSLRLSCAASGFTFSRYSMSWVRQAPGKGLEWVGQINSRGNSTYYPDTVKGRFTISRDDSKNTLYLQMNSLKTEDTAVYYCTTGDFWGQGTLVTVSS VL: DIVMTQTPLSLSVTPGQPASISCRSSQSLIYSDGNAYLHWYLQKPGQSPQLLIYKVSNRFSGVPDRFSGSGSGTDFTLKISRVEAEDVGVYYCTQSTHSPWTFGGGTKVEIK",Fold Increase (kon),β Amyloid peptide 1-40 [2],5 fold
same,Kd,β Amyloid peptide 1-40 [4],0.0079 nM
same,koff,β Amyloid peptide 1-40 [4],1.01e-05 s⁻¹
same,kon,β Amyloid peptide 1-40 [4],1.28e+06 M⁻¹ s⁻¹
same,kon,β Amyloid peptide 1-40 [6],610000 M⁻¹ s⁻¹
"1A1 monoclonal antibody (IgG1) (antibody, V domains shown) VH: EVQLVESGGGLVKPGGSLRLSCAASGYTFSRYSMSWVRQAPGKGLEWVGQINIRGNNTYYPDTVKGRFTISRDDSKNTLYLQMNSLKTEDTAVYYCTTGDFWGQGTLVTVSS VL: DIVMTQTPLSLSVTPGQPASISCSSSQSLIYSDGNAYLHWYLQKPGQSPQLLIYKVSNRFSGVPDRFSGSGSGTDFTLKISRVEAEDVGVYYCTQSTHSPWTFGGGTKVEIK",Fold Increase (kon),β Amyloid peptide 1-40 [2],3 fold
same,Fold increase in affinity,β Amyloid peptide 1-40 [3],17 fold
same,Fold increase in kon,β Amyloid peptide 1-40 [7],2 fold
same,Kd,β Amyloid peptide 1-40 [8],3.2 pM and 5.7 pM
same,kon,β Amyloid peptide 1-40 [9],580000 M⁻¹ s⁻¹ and 550000 M⁻¹ s⁻¹ and 390000 M⁻¹ s⁻¹
same,kon,β Amyloid peptide 1-40 [10],1.06e+06 M⁻¹ s⁻¹ and 954000 M⁻¹ s⁻¹ and 912000 M⁻¹ s⁻¹ and 883000 M⁻¹ s⁻¹
same,Kd,β Amyloid peptide 1-40 [11],1.2 pM
same,koff,β Amyloid peptide 1-40 [11],1.1e-06 s⁻¹
same,kon,β Amyloid peptide 1-40 [11],880000 M⁻¹ s⁻¹
same,Kd,β Amyloid peptide 1-40 [12],4.5 pM
same,kon,β Amyloid peptide 1-40 [13],510000 M⁻¹ s⁻¹
same,kon,β Amyloid peptide 1-40 [14],913000 M⁻¹ s⁻¹
same,kon,β Amyloid peptide 1-40 [15],976000 M⁻¹ s⁻¹
same,kon,β Amyloid peptide 1-40 [16],762000 M⁻¹ s⁻¹
same,kon,β Amyloid peptide 1-40 [5],390000 M⁻¹ s⁻¹
same,kon,β Amyloid peptide 1-40 [17],851000 M⁻¹ s⁻¹
"m266 Fab fragment (Fab, V domains shown) VH: EVKLVESGGGLVQPGGSLKLSCAVSGFTFSRYSMSWVRQTPEKRLELVAQINSVGNSTYYPDTVKGRFTISRDNAEYTLSLQMSGLRSDDTATYYCASGDYWGQGTTLTVSS VL: DVVMTQTPLSLPVSLGDQASISCRSSQSLIYSDGNAYLHWFLQKPGQSPKLLIYKVSNRFSGVPDRFSGSGSGTDFTLKISRVETEDLGVYFCSQSTHVPWTFGGGTKLEIK",Kd,β Amyloid peptide 1-40 [18],0.138 nM
same,koff,β Amyloid peptide 1-40 [18],4.96e-05 s⁻¹
same,kon,β Amyloid peptide 1-40 [18],360000 M⁻¹ s⁻¹
